How the values were obtained:
Experiment in all cases: SEC
[1] = molecular target: Full-length cytoplasmic C-terminal domain (VARC 1–392) of PfEMP1 (PF08_0141), unphosphorylated (P. falciparum 3D7)
[2] = molecular target: VARC 87–392 of PfEMP1 (PF08_0141) (P. falciparum 3D7)
[3] = molecular target: VARC 1–291 of PfEMP1 (PF08_0141) (P. falciparum 3D7)
[4] = molecular target: VARC 87–291 of PfEMP1 (PF08_0141) (P. falciparum 3D7)

Q: Which stoichiometry N [1] does the source give for “Full-length cytoplasmic C-terminal domain (VARC 1–392) of PfEMP1 (PF08_0141), unphosphorylated (domain or fragment)” here?
A: 2

Q: How did the stoichiometry N [2] turn out when “VARC 87–392 of PfEMP1 (PF08_0141) (domain or fragment)” was run?
A: 2

Q: With “VARC 1–291 of PfEMP1 (PF08_0141) (domain or fragment)” as the substance, how does the stoichiometry N [3] read?
A: 2

Q: How did the stoichiometry N [4] turn out when “VARC 87–291 of PfEMP1 (PF08_0141) (domain or fragment)” was run?
A: 2

— article PMC2649111
